Measurements: publication PMC5960609 (Biochemical pharmacology, 2018)

B1: TH553, thioredoxin fusion of human AHR aa1-295 (CΔ553) (domain or fragment, UniProt P35869 1-295, looked up)
chain: MNSSSANITYASRKRRKPVQKTVKPIPAEGIKSNPSKRHRDRLNTELDRLASLLPFPQDVINKLDKLSVLRLSVSYLRAKSFFDVALKSSPTERNGGQDNCRAANFREGLNLQEGEFLLQALNGFVLVVTTDALVFYASSTIQDYLGFQQSDVIHQSVYELIHTEDRAEFQRQLHWALNPSQCTESGQGIEEATGLPQTVVCYNPDQIPPENSPLMERCFICRLRCLLDNSSGFLAMNFQGKLKYLHGQKKKGKDGSILPPQLALFAIATPLQPPSILEIRTKNFIFRTKHKLDF

Legend:
GST-p23 W106A (human) = GST-p23 W106A (human) (UniProt Q15185); assay: pull-down
GST-p23 D112A (human) = GST-p23 D112A (human) (UniProt Q15185); assay: pull-down
GST-p23 D108A (human) = GST-p23 D108A (human) (UniProt Q15185); assay: pull-down
[1] = molecular target: Full-length human ARNT expressed in Pichia (human, UniProt P27540 1-789); assay: native gel or EMSA
Full-length human ARNT expressed in Pichia, sequence (P27540 whole entry): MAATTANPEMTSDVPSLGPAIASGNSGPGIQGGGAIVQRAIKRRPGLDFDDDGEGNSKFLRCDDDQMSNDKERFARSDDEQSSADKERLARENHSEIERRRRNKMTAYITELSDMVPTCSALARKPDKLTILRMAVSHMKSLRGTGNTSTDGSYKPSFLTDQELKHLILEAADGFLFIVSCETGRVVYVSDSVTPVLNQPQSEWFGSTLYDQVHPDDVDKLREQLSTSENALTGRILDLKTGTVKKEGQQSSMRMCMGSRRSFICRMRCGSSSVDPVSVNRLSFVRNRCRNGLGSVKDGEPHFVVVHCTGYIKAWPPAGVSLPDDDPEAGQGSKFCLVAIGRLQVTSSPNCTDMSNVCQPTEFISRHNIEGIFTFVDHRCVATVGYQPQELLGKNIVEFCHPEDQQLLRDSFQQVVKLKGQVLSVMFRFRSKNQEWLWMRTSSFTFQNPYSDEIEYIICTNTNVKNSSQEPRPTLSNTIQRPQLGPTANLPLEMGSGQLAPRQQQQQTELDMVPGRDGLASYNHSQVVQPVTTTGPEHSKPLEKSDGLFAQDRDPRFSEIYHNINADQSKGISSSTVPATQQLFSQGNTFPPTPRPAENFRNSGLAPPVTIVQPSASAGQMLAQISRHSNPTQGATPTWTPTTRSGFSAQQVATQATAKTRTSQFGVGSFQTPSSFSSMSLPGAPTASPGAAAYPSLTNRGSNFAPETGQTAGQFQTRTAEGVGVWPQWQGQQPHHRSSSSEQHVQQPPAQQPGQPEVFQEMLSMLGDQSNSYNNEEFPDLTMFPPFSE

[2] = molecular target: B1; assay: pull-down

In the case of “Histidine fusion of full-length human Hsp90 (from UniProt P07900 1-732) (natural protein)”, the Hsp90 co-precipitated, percent of wild-type p23 (GST-p23 W106A (human)) is reported as 19%, the Hsp90 co-precipitated, percent of wild-type p23 (GST-p23 D112A (human)) is reported as 41% and the Hsp90 co-precipitated, percent of wild-type p23 (GST-p23 D108A (human)) is reported as 12%.

B1: binds [1].

B2: GST-p23 CΔ50 (p23 aa1-110, lacking the terminal 50 amino acids) (domain or fragment, human, UniProt Q15185 1-110, looked up)
chain: MQPASAKWYDRRDYVFIEFCVEDSKDVNVNFEKSKLTFSCLGGSDNFKHLNEIDLFHCIDPNDSKHKRTDRSILCCLRKGESGQSWPRLTKERAKLNWLSVDFNNWKDWE
B2: binds [2].

B3: GST-p23 D108A (natural protein, human, UniProt Q15185 1-160, looked up)
chain: MQPASAKWYDRRDYVFIEFCVEDSKDVNVNFEKSKLTFSCLGGSDNFKHLNEIDLFHCIDPNDSKHKRTDRSILCCLRKGESGQSWPRLTKERAKLNWLSVDFNNWKAWEDDSDEDMSNFDRFSEMMNNMGGDEDVDLPEVDGADDDSQDSDDEKMPDLE
B3: binds [2].

B4: GST-p23 D112A (natural protein, human, UniProt Q15185 1-160, looked up)
chain: MQPASAKWYDRRDYVFIEFCVEDSKDVNVNFEKSKLTFSCLGGSDNFKHLNEIDLFHCIDPNDSKHKRTDRSILCCLRKGESGQSWPRLTKERAKLNWLSVDFNNWKDWEDASDEDMSNFDRFSEMMNNMGGDEDVDLPEVDGADDDSQDSDDEKMPDLE
B4: binds [2].
